In the experiment the target is actin (UniProt P68135). Kind of experiment: other fluorescence titration.

Chain of recombinant human cofilin (P23528 whole entry): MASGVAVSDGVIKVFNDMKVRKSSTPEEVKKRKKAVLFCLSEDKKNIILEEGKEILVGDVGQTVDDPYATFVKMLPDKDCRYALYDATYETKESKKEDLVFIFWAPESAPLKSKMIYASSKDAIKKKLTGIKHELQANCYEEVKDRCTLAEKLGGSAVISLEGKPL

As for “recombinant human cofilin (from UniProt P23528 1-166) (natural protein)”, the binding density (νcof) at 3 µM cofilin is over 0.9.

Source of the values: publication PMC4256095.
